Changes are numbered by the printed parent chain.
How the values were obtained:
Human DLL3-His = target: T1, Human DLL3-His (human, UniProt Q9NYJ7 27-492); test: sandwich ELISA with ECL readout (MSD): anti-DLL3 antibody coated, recombinant DLL3 protein titrated; the concentration is that of DLL3 protein
T1 construct: also called huDLL3-His; hu DLL3
T1 sequence: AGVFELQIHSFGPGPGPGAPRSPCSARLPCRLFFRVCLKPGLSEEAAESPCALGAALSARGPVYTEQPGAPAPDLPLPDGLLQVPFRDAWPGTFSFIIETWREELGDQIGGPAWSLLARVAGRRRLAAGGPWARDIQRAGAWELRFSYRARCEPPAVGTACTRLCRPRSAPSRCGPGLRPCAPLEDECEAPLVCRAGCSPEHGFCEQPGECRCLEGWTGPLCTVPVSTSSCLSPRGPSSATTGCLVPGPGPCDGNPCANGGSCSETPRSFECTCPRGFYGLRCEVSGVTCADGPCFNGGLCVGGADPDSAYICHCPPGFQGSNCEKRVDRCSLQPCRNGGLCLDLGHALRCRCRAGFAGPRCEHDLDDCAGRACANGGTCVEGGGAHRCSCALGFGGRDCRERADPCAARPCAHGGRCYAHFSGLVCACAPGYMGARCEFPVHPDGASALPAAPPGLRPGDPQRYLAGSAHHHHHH
Protocol: Binding of antibodies was performed in an ELISA. In brief, anti-DLL3 antibodies were coated at a concentration of […] at 4° C. over night. After washing the plates were blocked with blocking buffer (Gibco, Gibco #043-90309A) for one hour at room temperature, followed by washing and incubation with recombinant DLL3 protein at increasing concentrations. For detection the bound DLL3 protein was incubated with a polyclonal anti-DLL3 antibody (R&D Systems, AB4315) followed by a SULFO-TAG labelled anti-goat antibody (R32AG-1) for one hour. The bound antibody was quantified by using a Read Buffer (MSD) in a Sector imager 6000 (MSD).

[1] = target: T2, human DLL3 (endogenous, on SCLC cell lines NCI-H82 and SHP77 and in SCLC tissue) (human, UniProt Q9NYJ7 27-618); test: flow cytometry on a DLL3-positive SCLC cell line (not named on the sheet), PE-conjugated anti-mouse secondary antibody
T2 construct: whole, on cells; also called SCLC cell lines expressing DLL3
T2 sequence (looked up): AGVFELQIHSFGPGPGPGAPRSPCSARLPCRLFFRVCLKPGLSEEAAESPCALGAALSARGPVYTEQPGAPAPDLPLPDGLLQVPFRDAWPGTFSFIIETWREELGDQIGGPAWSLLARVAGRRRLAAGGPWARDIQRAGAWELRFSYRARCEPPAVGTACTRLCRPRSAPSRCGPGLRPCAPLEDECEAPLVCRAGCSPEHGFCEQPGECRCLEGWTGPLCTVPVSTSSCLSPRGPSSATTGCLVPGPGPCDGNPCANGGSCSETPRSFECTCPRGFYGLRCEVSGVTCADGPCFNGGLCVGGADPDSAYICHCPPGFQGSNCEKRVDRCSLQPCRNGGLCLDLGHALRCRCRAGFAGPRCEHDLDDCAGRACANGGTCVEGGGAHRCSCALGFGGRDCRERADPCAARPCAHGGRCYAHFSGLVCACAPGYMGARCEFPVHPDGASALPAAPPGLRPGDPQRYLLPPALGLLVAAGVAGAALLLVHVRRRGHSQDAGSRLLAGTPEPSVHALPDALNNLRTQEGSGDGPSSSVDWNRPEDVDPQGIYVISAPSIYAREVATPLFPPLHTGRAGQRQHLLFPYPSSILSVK
Source text: Cells (T cells or human SCLC cells) were stained with increasing concentrations of anti-DLL3 antibody with increasing concentrations in FACS buffer (PBS/0.5% BSA/0.05% sodium azide).

[2] = target: T2, human DLL3 (endogenous, on SCLC cell …); test: flow cytometry titration on SHP77 cells, PE anti-human secondary, x-fold over background
Source text: (§1) Cells (T cells or human SCLC cells) were stained with increasing concentrations of two-step purified DLL3/CD3 binding proteins with increasing concentrations in FACS buffer (PBS/0.5% BSA/0.05% sodium azide). Bound molecules were detected with PE-conjugated anti-human secondary antibody (Sigma-Aldrich, #P8047).

EGF3+4 = target: T3, EGF3+4; test: flow cytometry on HEK293 cells expressing the DLL3 subdomain construct, PE anti-human secondary, control: secondary antibody only
T3 construct: also called Hu DLL3 EGF3+4 on HEK293 cells
T3 membrane-anchored DLL3 subdomain construct: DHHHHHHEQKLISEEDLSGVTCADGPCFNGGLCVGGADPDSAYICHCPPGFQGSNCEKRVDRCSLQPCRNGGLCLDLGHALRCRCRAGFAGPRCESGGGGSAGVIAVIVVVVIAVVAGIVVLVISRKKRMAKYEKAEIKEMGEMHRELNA
Protocol: (§2) DLL3/CD3 binding proteins were produced by transient transfection of CHO-E cells with the pTT5 vectors carrying the chain-encoding genes, as described in Example 2. […] Bound molecules were detected with PE-conjugated anti-human secondary antibody (Sigma-Aldrich, #P8047). As negative control, cells were incubated with secondary antibody only.
(§3) The samples were measured by flow-cytometry. […] The sequences of the epitope domains are listed in Example 5, Table 3.

EGF2+3 = target: T4, EGF2+3; test: as above
T4 construct: also called Hu DLL3 EGF2+3 on HEK293 cells
T4 membrane-anchored DLL3 subdomain construct: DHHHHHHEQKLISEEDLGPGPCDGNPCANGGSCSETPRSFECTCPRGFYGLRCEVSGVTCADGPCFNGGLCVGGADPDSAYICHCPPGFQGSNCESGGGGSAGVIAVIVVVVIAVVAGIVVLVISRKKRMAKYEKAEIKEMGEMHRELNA
Protocol: as §2, §3

EGF4+5 = target: T5, EGF4+5; test: as above
T5 construct: also called Hu DLL3 EGF4+5 on HEK293 cells
T5 membrane-anchored DLL3 subdomain construct: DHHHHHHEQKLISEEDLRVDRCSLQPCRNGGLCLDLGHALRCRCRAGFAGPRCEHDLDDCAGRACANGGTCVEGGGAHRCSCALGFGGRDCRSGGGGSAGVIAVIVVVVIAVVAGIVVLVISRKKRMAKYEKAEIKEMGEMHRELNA
Protocol: as §2, §3

[3] = target: T6, EGF6+MEMBRANE PROXIMAL PEPTIDE; test: as above
T6 construct: also called Hu DLL3 EGF6+membrane proximal peptide on HEK293 cells
T6 membrane-anchored DLL3 subdomain construct: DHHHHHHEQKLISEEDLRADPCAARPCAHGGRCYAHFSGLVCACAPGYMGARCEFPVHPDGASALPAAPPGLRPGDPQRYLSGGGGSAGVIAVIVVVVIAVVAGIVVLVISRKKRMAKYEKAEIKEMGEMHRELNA
Protocol: as §2, §3

EGF1+2 = target: T7, EGF1+2; test: as above
T7 construct: also called Hu DLL3 EGF1+2 on HEK293 cells
T7 membrane-anchored DLL3 subdomain construct: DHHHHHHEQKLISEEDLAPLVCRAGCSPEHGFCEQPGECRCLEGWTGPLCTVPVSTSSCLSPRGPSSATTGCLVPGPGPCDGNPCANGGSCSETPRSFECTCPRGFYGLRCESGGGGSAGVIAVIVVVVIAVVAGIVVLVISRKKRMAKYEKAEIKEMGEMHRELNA
Protocol: as §2, §3

EGF5+6 = target: T8, EGF5+6; test: as above
T8 construct: also called Hu DLL3 EGF5+6 on HEK293 cells
T8 membrane-anchored DLL3 subdomain construct: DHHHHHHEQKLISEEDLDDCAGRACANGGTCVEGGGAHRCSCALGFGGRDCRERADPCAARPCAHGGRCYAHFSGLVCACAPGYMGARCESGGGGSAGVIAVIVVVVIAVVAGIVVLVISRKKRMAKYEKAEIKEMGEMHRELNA
Protocol: as §2, §3

[4] = target: T2, human DLL3 (endogenous, on SCLC cell …); test: flow cytometry titration on NCI-H82 cells, PE anti-human secondary, x-fold over background
Source text: as §1

B1: anti-DLL3 antibody DLL3#4 (antibody, V domains shown)
VH: QVQLQQSGTELVKPGASVKLSCKASVYTFTSYFMYWVKQRPGHGLEWIGEISPTNGNSNLNERFKNKATLTVDKSSSTAYMQLSSLTSEDSAVYYCTRGGDGYLDYWGQGTTLTVSS
VL: DIVLTQSPASLAVSLGQRATISCRASKSVSSFGYSFMHWYQQKPGQPPKLLIYLASNLESGVPARFSGSGSGTDFTLNIHPVEEEDAATYYCQHSRELPWTFGGGTKLEIK
notes: detected with anti-mouse secondary antibody
EC50 (read off the curve) (Human DLL3-His): ~20 ng/mL
EC50 (read off the curve) [1]: ~0.1 nM

B2: anti-DLL3 antibody DLL3#6 (antibody, V domains shown)
VH: QVQLQESGPGLVKPSETLSLTCTVSGGSISSYFWSWIRQPAGKGLEWIGRIYTSGSTNYNPSLNSRLTMSVDTSKNQFSLKLSSVTAADTAVYYCARRGDWGGFDIWGQGTVVTVSS
VL: DIQLTQSPSFLSTSVGDRVTITCRASQDISNYFAWYQQKPGKAPKLLIYAASTLQSGVPSRFSGGGSGTEFTLTISSLQPEDFATYYCQQLNSYPYTFGQGTKLEIK
notes: as for B1
EC50 (read off the curve) [1]: ~0.4 nM

B3: anti-DLL3 antibody DLL3#3 (antibody, V domains shown)
VH: QVQLVQSGAEVKKPGASVKVSCKASGYTFTSYYVHWVRQAPGQGLEWMVIINPGGGTTSYAQKFLGRVTMTRDTSTNTVYMELKSLRSEDTAVYYCARGEAVTGNYFYYGMDVWGQGTTVTVSS
VL: DIQMTQSPSAMSASVGDRVTITCRASQGISNYLVWFQQKPGKAPKRLIYAVSSLYSGVPSRFSGSGSGTEFTLTISSLQPEDFATYYCLQHDSYPYTFGQGTKLEIK
notes: as for B1
EC50 (read off the curve) (Human DLL3-His): ~10 ng/mL

B4: anti-DLL3 antibody DLL3#2 (antibody, V domains shown)
VH: B3 VH with V34M, V49G, G54S, T57S, L65Q, N77S, K84S, T103G, F107Y
VL: B3 VL with V34A, A43V, K45E, R46P, V51A, Y55Q, G68V, D92N, Y94S
notes: as for B1
binding result [1]: binds

B5: anti-DLL3 antibody DLL3#1 (antibody, V domains shown)
VH: QVQLVQSGAEVKKPGASVKVSCKASGNTFTNYYMHWVRQAPGPGLEWMGIIDPSVGSKSYAQKFLGRVTIARDTSTSTVFLDLYSLRSEDTAVYFCARAGKRFGESYFDYWGQGTLVTVSS
VL: EIVLTQSPGTLSLSPGERATLSCRASQSVSSNFLVWYQQKPGQAPRPLIYGASTRASGIPDRFSGSGSGADFTLTISRLEPEDFALYYCQQYGDSPYTFGQGTTLEIK
notes: it was detected with anti-mouse reagents
binding result [1]: binds

B6: anti-DLL3 antibody DLL3#5 (antibody, V domains shown)
VH: QVQLVQSGAEVKKPGASVKVSCKASGFTFTGYYIHWVRQAPGQGLEWMGWINPNSGGTNYAQKFQGRVTMTRDSSINTAFMELSRLTSDDTAVYYCAAGWDYWGQGTLVTVSS
VL: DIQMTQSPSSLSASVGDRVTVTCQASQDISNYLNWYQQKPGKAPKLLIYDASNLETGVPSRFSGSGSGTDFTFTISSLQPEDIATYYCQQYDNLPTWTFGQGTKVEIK
notes: detected with anti-mouse reagents
EC50 (read off the curve) (Human DLL3-His): ~10 ng/mL
EC50 (read off the curve) [1]: ~0.5 nM

B7: DLL3#15/CD3#1 (bispecific antibody, human IgG1, kappa, lambda, L234A L235A)
chain 1: not shown
chain 2: EAVVTQEPSLTVSPGGTVTLTCRSSTGAVTTSNYANWVQEKPGQLPRGLIGGTNKRAPWVPARFSGSLLGGKAALTLSGAQPEDEAEYFCALWYSNLWVFGGGTKLTVLGQPKAAPSVTLFPPSSEELQANKATLVCLISDFYPGAVKVAWKADGSPVNTGVETTTPSKQSNNKYAASSYLSLTPEQWKSHRSYSCQVTHEGSTVEKTVAPAECSGGGGSEGKSSGSGSESKSTEGKSSGSGSESKSTGGGGSEVQLVESGGGLVQPGGSLKLSCAASGFTFNTYAMNWVRQAPGKGLEWVARIRSKYNNYATYYADSVKDRFTISRDDSKNTAYLQMNNLKTEDTAVYYCVRHGNFGNSYVSWFAYWGQGTLVTVSAASTKGPSVFPLAPSSKSTSGGTAALGCLVKDYFPEPVTVSWNSGALTSGVHTFPAVLQSSGLYSLSSVVTVPSSSLGTQTYICNVNHKPSNTKVDKRVEPKSCDKTHTCPPCPAPEAAGGPSVFLFPPKPKDTLMISRTPEVTCVVVDVSHEDPEVKFNWYVDGVEVHNAKTKPREEQYNSTYRVVSVLTVLHQDWLNGKEYKCKVSNKALPAPIEKTISKAKGQPREPQVYTLPPSREEMTKNQVSLSCAVKGFYPSDIAVEWESNGQPENNYKTTPPVLDSDGSFFLVSKLTVDKSRWQQGNVFSCSVMHEALHNRFTQKSLSLSPG
notes: Heterodimer of one DLL3 chain and one CD3 chain (scFab-Fc, knob-in-hole); SPR not given
EC50 (read off the curve) [2]: ~2 nM
binding result (EGF3+4): no binding (tested: 1.6 nM)
binding result (EGF2+3): no binding (tested: 1.6 nM)
binding result (EGF4+5): no binding (tested: 1.6 nM)
binding result [3]: no binding (tested: 1.6 nM)
binding result (EGF1+2): no binding (tested: 1.6 nM)
binding result (EGF5+6): no binding (tested: 1.6 nM)
EC50 (read off the curve) [4]: ~1 nM
